Drawing on patent publication US20260193324A1, this text covers EC50 (read off the curve), 4 hr stimulation for one substance.

This test deals with human GLP-1 receptor (GLP-1R) (human) (UniProt P43220).
Sequence of UniProt P43220 (P43220 24-463): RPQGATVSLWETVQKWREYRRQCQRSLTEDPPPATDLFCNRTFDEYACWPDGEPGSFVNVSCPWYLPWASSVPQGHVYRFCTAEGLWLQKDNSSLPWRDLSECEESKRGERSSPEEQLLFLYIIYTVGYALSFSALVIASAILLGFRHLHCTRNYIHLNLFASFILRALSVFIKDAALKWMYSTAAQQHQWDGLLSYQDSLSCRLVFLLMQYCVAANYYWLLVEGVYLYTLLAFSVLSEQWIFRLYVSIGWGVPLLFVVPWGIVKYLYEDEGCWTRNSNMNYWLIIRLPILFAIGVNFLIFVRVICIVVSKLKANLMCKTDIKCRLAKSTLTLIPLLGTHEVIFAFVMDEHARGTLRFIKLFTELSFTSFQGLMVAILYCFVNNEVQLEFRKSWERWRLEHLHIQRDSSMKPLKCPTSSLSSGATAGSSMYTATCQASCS

In the case of “GLP-1(7-37) peptide (from UniProt P01275 21-180)”, the EC50 (read off the curve), 4 hr stimulation was 1 nM.
